Where “and” joins values, the source holds several entries; their conditions need not be identical. Equal entries are not always repeated. Values belong to the molecule of their own block, whether it stands above or below them.
Key:
[1] = biological target: anti-DNP mouse IgE antibody (Sigma, USA); experiment: BLI (Octet K2), fusion protein on sensor, anti-DNP mouse IgE in solution
[2] = biological target: anti-DNP mouse IgE antibody (Sigma, USA); experiment: BLI (Octet K2), average of three runs, fusion protein on sensor, anti-DNP mouse IgE in solution
[3] = biological target: anti-DNP mouse IgE antibody (Sigma, USA); experiment: BLI (Octet K2), fusion protein amine-coupled to AR2G sensor, anti-DNP mouse IgE in solution 50 pM-3.125 nM
[4] = biological target: T1, IL-10 receptor 1 (IL-10R1), IL-10R His-tag protein; experiment: BLI (Octet K2), IL-10R His-tag amine-coupled to AR2G sensor, fusion protein in solution 0-1,000 nM
T1 sequence (Q13651 22-235, species assumed, looked up): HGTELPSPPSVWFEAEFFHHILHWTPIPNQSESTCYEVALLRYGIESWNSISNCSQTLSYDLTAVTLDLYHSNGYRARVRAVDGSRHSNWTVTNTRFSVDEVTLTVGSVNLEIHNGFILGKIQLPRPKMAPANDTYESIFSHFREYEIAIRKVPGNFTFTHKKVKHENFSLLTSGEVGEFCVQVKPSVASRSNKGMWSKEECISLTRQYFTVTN

[5] = biological target: T1, IL-10 receptor 1 (IL-10R1), IL-10R His-tag protein; experiment: BLI (Octet K2), IL-10R His-tag on sensor

- kon [1]: 123000 M⁻¹ s⁻¹ and 149000 M⁻¹ s⁻¹ and 166000 M⁻¹ s⁻¹
- Kd [2]: 0.594 nM
- Kd [3]: 0.364 nM and 0.478 nM and 0.94 nM
Molecule: FcεRIα-Fc fusion protein not containing IL-10Vm (control) (from UniProt P12319 26-205)

- Kd [4]: 11.1 nM
- koff [4]: 0.0008 s⁻¹
- kon [4]: 71100 M⁻¹ s⁻¹
B1: IL-10M (NTIG-linker 1-IL-10V), dimeric IL-10 variant fusion protein of Comparative Example 1 (Fc fusion, not shown: a dimerising Fc or GST)
chain: AAGSGGGGGSGGGGSGGGGSSPGQGTQSENSCTHFPGNLPNMLRDLRDAFSRVKTFFQMKDQLDNLLLKESLLEDFKGYLGCQALSEMIQFYLEEVMPQAENQDPDAKAHVNSLGENLKTLRLRLRRCHRFLPCENKSKAVEQVKNAFNKLQEKGIYKAMSEFDIFINYIEAYMTMKIRN

- fold of KD against Comparative Example 1 (NTIG-IL-10V) [5]: 3 fold
- Kd [4]: 29.2 nM
- koff [4]: 0.0006 s⁻¹
- kon [4]: 20600 M⁻¹ s⁻¹
B2: IL-10M-1 (NTIG-linker 1-IL-10Vm), monomeric IL-10 variant fusion protein of Example 1 (Fc fusion)
chain: SHTQPLGVFLFPPKPKDQLMISRTPEVTCVVVDVSQEDPEVQFNWYVDGVEVHNAKTKPREEQFNSTYRVVSVLTVLHQDWLNGKEYKCKVSNKGLPSSIEKTISKAKGQPREPQVYTLPPSQEEMTKNQVSLTCLVKGFYPSDIAVEWESNGQPENNYKTTPPVLDSDGSFFLYSRLTVDKSRWQEGNVFSCSVLHEALHNHYTQKSLSLSLGAAGSGGGGGSGGGGSGGGGSSPGQGTQSENSCTHFPGNLPNMLRDLRDAFSRVKTFFQMKDQLDNLLLKESLLEDFKGYLGCQALSEMIQFYLEEVMPQAENQDPDIKAHVNSLGENLKTLRLRLRRCHRFLPCENGGSGGSGGSKSKAVEQVKNAFNKLQEKGIYKAMSEFDIFINYIEAYMTMKIRN
